The DeepSol protein solubility set

Experiment: soluble on expression in E. coli; label from the status in PepcDB or PDB records

| Sequence | soluble on expression in E. coli |
| --- | --- |
| ASMRPVRLMKVFVTRRIPAEGRVALARAADCEVEQWDSDEPIPAKELERGVAGAHGLLCLLSDHVDKRILDAAGANLKVISTMSVGIDHLALDEIKKRGIRVGYTPDVLTDTTAELAVSLLLTTCRRLPEAIEEVKNGGWTSWKPLWLCGYGLTQSTVGIIGLGRIGQAIARRLKPFGVQRFLYTGRQPRPEEAAEFQAEFVSTPELAAQSDFIVVACSLTPATEGLCNKDFFQKMKETAVFINISRGDVVNQDDLYQALASGKIAAAGLDVTSPEPLPTNHPLLTLKNCVILPHIGSATHRTRNTMSLLAANNLLAGLRGEPMPSELKL | soluble |
| MRAFYSTTEEISALFAKQQEQLKTMQRTLEDEDNCDNTSLDIDLNPINRSPNRANTQGDKRATSHLNFAARASSSTSGQRSTRNEVVDTSCEDADATQKHDCEIMSQEGQNTQEAEYPSSDKVAKGGFGSDIEGIGTAPTSGTDPVGTEQVNETQSPGNDYERNDHLRKSIILAGDTMQIDCETQVHESVQIEGAVLLLRNPNDRRDTQDIEGVGTIGTSDLLASEVAGSWANSTNPSVHGENETERSREDEESQTQKIKEVTIVQDSAGQIGESQTKPTSPGVLVTNKDDAERGVINEPVGITDQGKIKHGTRSDSETESCSDSDDDHEKEKHNPVSDSDTEGSDMNDDKGSLSSDPDTERSHEVDGDQKKQVDTMDEDDKAT | soluble |
| MEYQHWLREAISQLQASESPRRDAEILLEHVTGRGRTFILAFGETQLTDEQCQQLDALLTRRRDGEPIAHLTGVREFWSLPLFVSPATLIPRPDTECLVEQALARLPEQPCRILDLGTGTGAIALALASERPDCEIIAVDRMPDAVSLAQRNAQHLAIKNIHILQSDWFSALAGQQFAMIVSNPPYIDEQDPHLQQGDVRFEPLTALVAADSGMADIVHIIEQSRNALVSGGFLLLEHGWQQGEAVRQAFILAGYHDVETCRDYGDNERVTLGRYYQ | soluble |
| MSFRHFKRRLDTSSADESSSADEEHPDQNVSLTEKSASLSHSDLGGEILNGTGKNRTPNDGQESNESDGSPESDESPESEESSDNSDSSDSDDMRPLPRPLFMKKKANNLQKATKIDQPWNAQDDARVLQTKKENMIKNIDKANQVAKNYETMKLRLNTNYSTNEELIKQCLLLDDNDEVDSEKERQKWFERQNERKQKHRRIQLAKQRESEEYEAKRFEAMQKGKDGNTKYDVILDKEKEKLDHKKQRSAEKVEKSHNNNRYKITRTKNVEFGDLGKNSRDYEETEYSVI | soluble |
| GPGSMNQLISVINELHDAFAGVKMNIKLNLPQIAVVGSQSCGKSSVLESIVGKDFLPRGSGIVTRCPLVLQLVQLPKSNEEEWGEFLHIPNKKFYDFNEIQNEITRRTIEIAGPSAITDKPINLKVYSSAVLNLTLVDLPGLVMNAVGDQPKDIDRQIKDMVTRYVLPKNTIILAISPANTDLATSQSLRLAKQLDPEGVRTVGVLTKIDLMDKGTDCFDVLQNRVLQLRHGFVGVVCRSQQDINDCKSMEDARRSEYEFFANSPIYSPIAEEAGTAYLSKKLNFLLLEHIKAVIPDLKHHVDQLMEATKKQMEKLGMFEQDITEPTAQLLYLIKVFSDALNQTIDGGITDATKELLGGARLDYIFHECFATYVTSLSATKDLTDDYIRINTRNMAGMHATLFPSDQVFVALSKQQINRLEEPCIKCVTFVYEELGKIVEICAGKVDRYPNLKEAVIAICKKMLFDYRLPTSTHVRTIIKAERGFINVKHPMMDELAQRALSNIYGTTSGESSSPPRNSSGPNASAAGGTQADPKQSGKDIKKDDKRGVRDEKRPEKPKEQGNTDSAISPGNKSDMNDVPSRIMLGKTMTMHEQFMNSAIREMVEGYFSIVKGNVADQVPKAITLLMITRLREEVYARLVSELYSDKTAKALLSEPPGIATQRKAAKEMLEALTKAQNALNSVRDYQLTKEPASSMQAGT | soluble |
| MGSDKIHHHHHHMSEQELSQLSGGMDDAAPCPWLKVEVHPAGDRQVVVAYGDIDVDTEAILQRALREALDHSVSGVNLDLGAVGFCDCAGLNVLLRMRRHALAHGKTLAVQATGPATGKLLTITGTLSLFDVTAGPGTRAKGRNPLPPEPHDPSRVDHIDGTGRGRDGTDLETDGTIDGTVVDLRIEVGQLRRAMQTRPVIDLARGVLMASFGLSAEDAWTVLVTVSQHTNTKLHQIAEDLVNTVQGAPLPEPLQRQLAEAVMPFSRVRNAGA | not soluble |
| MSMLKKTKEFFGLAPYEAEHEDAYYADEPRYEGTAAYAPEYRERDYGYAPEAPAPVAPSPAPRSYQSTIVPVELHSFEDAQVIGGAFRDGDAVVFDMSLLSREEARRIVDFAAGLCFALRGKMQKIDSVTFAVVPELSNISTSELERAARIRAAALEHHHHHH | soluble |
| MTFAEYFKNWYIFYKKPKVSKVTLNRYQYTYNVINEYFGNKLLKDITRANYQKFIVKYGQNHSPNTMKMINNCIKACVKNAVYDEEIKKDFTYNIELISNRDNVVQLEHHHHHH | not soluble |
| MVVLNPNNWHWVDKNTLPWSKDYLNGKLTSLSTVSSDGKSKIELTQVSSITGDSNVSQRKGKPICYFDLQLSMNVKVTNLDTNKDDEDDDGILADGKLEIPEFMHDESDIPILSQGFDAFDGLVRSEFVPKVVETLLKYQDDLIKEHSKDIQV | soluble |
| MNKKLMTLAVFLFSSAASAASTDATVNLVNANGTGQKIGNITITETEYGLLFTPHLSSLPAGIHGFHIHENGSCDAGMKDGKPVAALAAGGHLDPQHTNKHLGPYNPEGHLGDLPALYVNQAGNADYPVLAPRLKSISQVKGHAIMIHTGGDNHEDHPNPLGGGGARIACGVIK | not soluble |
| GPGSMQQPTAQEEQYVNVPVPLTGEEKGWQEVAPNRYIRYEQFGGSDAEMNFIVNLFTAELTEPYSSFTYQYFVFGWPDLCITAFGVESETKPDNSVVGEKVGAVVSRVTRKGAGMPLRGYVAMFAVVPKFRGYRLGSRLVSLTVELMRAKGCDEVYLETPTSNVRALGLYLNLGFAKTKYLPRYYLDHSDAVRLKLWLKDAIPKSVPETASTAGVEKA | soluble |
| MSLTQTILVIDDDAAVRGSFQLVLGEIGCVVRVAEDGLQGIAMAREERPDLIFLDLKMPGIDGVETMRRLLAMDPTFNIYIVTAFSQEYLDDLKQAQAEGMTFQLANKPLSSTQIRHIARSVRSLSNVSKDNHRISLTLYVVSVNPEIQKVVDQLSNVLAATYRAGFWVLNVVEVLGMPEKALEKDVFATPMLVREVPEPVLKLLGDLSRMHSVLSAITAENGHGAGTEGHHHHHH | soluble |
| MSLIFSKIRGNFQDLKDGKISVKQGLITKSDAIELFNIKNWKDYLKLFSIASEVRDFFKNEIEITSTVHVTNICSVTPKCAYCGFAAGTSSEGYVEPFRSNDEQIKSSAAAVENSGIKRVSCSSGHGYSGKEVIRALKAVKSASNLEVLVNAGADITEDCISELKKYNIDTICCNLETTNKSVFNKVKPGENLDDRISVCKMVKKHGIELSSGLLIGIGESYEDRAEHLFFLKELDVEEIPVMGFNPYKDTPMEQCPKCSAIEQAKTIAIARLLFPNIRITSPTPTMGPELAQFALLGGASNIATVIPDNHPMNIKGVGNPKTGNLNDVICMMKELGLTPKLNEGHHHHHH | soluble |
| MTAGLHHAAANGVRVRPFRRHPTKRYILTGAPGAGKTVLLRALETAGEVVVEEAATDVIALAQAQGVDQPWTDPGFIDTIVGLQRQRQTRAVGDRIFFDRSPVCALALARFLGHPVSALLEDELARIVREGVYQRRVFLVQGLGFITPTAARRISLDDAQAFEEVHQAAYTELGFELAPIAPGPVGDRVRRVLGAVLEHHHHHH | not soluble |
| MDLEEQKKAVIEKLIREGYIKSKRVIDALLKVPREEFLPEHLKEYAYVDTPLEIGYGQTISAIHMVGMMCELLDLKPGMKVLEIGTGCGYHAAVTAEIVGEDGLVVSIERIPELAEKAERTLRKLGYDNVIVIVGDGTLGYEPLAPYDRIYTTAAGPKIPEPLIRQLKDGGKLLMPVGRYLQRLVLAEKRGDEIIIKDCGPVAFVPLVGKEGFQG | soluble |
| MGSDKIHHHHHHMHACGDAVLFLPPNPFLDLRPVPHTSWARLPPMIRLAVLSDLHANLEATLAVHADVQRRGIQEIWVLGDLVGKGPRPREVVEWTQAHASRVIQGNWDARVAGATNRPQDLWPRSKLTPAQLAYLAGLPYGIEEQFSGAWWRFVHASSKGLFHRLYPHSSLAEQLEAYMPNPQFGLKVHADALVYADVHETLMLDVEGRPLINTGSVGNPLDSTLPSYLILEFDPHSPAHSATFVRLTYNRDAEIAAAEASGMPFTREYVAELLTGAYQKRRARTGE | not soluble |
| MSCVHYKFSSKLNYDTVTFDGLHISLCDLKKQIMGREKLKAADCDLQITNAQTKEEYTDDNALIPKNSSVIVRRIPIGGVKSTSKTYVISRTEPAMATTKAIDDSSASISLAQLTKTANLAEANASEEDKIKAMMSQSGHEYDPINYMKKPLGPPPPSYTCFRCGKPGHYIKNCPTNGDKNFESGPRIKKSTGIPRSFMMEVKDPNMKGAMLTNTGKYAIPTIDAGRLLFHKLGTMGHKQIDTYFWNRGDVYGATATQITHLREAYAIGKKEKPPFLPEEPSSSSEEDDPIPDELLCLICKDIMTDAVVIPCCGNSYCDECIRTALLESDEHTCPTCHQNDVSPDALIANKFLRQAVNNFKNETGYTKRLRKQLPPPPPPIPPPRPLIQRNLQPLMRSPISRQQDPLMIPVTSSSTHPAPSISSLTSNQSSLAPPVSGNPSSAPAPVPDITATVSISVHSEKSDGPFRDSDNKILPAAALASEHSKGTSSIAITALMEEKGYQVPVLGTPSLLGQSLLHGQLIPTTGPVRINTARPGGGRPGWEHSNKLGYLVSPPQQIRRGERSCYRSINRGRHHSERSQRTQGPSLPATPVFVPVPPPPLYPPPPHTLPLPPGVPPPQFSPQFPPGQPPPAGYSVPPPGFPPAPANLSTPWVSSGVQTAHSNTIPTTQAPPLSREEFYREQRRLKEEEKKKSKLDEFTNDFAKELMEYKKIQKERRRSFSRSKSPYSGSSYSRSSYTYSKSRSGSTRSRSYSRSFSRSHSRSYSRSPPYPRRGRGKSRNYRSRSRSHGYHRSRSRSPPYRRYHSRSRSPQAFRGQSPNKRNVPQGETEREYFNRYREVPPPYDMKAYYGRSVDFRDPFEKERYREWERKYREWYEKYYKGYAAGAQPRPSANRENFSPERFLPLNIRNSPFTRGRREDYVGGQSHRSRNIGSNYPEKLSARDGHNQKDNTKSKEKESENAPGDGKGNKHKKHRKRRKGEESEGFLNPELLETSRKSREPTGVEENKTDSLFVLPSRDDATPVRDEPMDAESITFKSVSEKDKRERDKPKAKGDKTKRKNDGSAVSKKENIVKPAKGPQEKVDGERERSPRSEPPIKKAKEETPKTDNTKSSSSSQKDEKITGTPRKAHSKSAKEHQETKPVKEEKVKKDYSKDVKSEKLTTKEEKAKKPNEKNKPLDNKGEKKKKK | soluble |
| MGSDKIHHHHHHMSFDLALFSSKLRRCREQFEKSLVEVTTATGIPENILAALENGERQPTGDEVLIFADYYLCDYQFFISNERVASFDQTETLFRRYGEEFSKEDRLAVQEFLFLCECEDFLLKLVQTHIYKPFSFIKRGNYYIGHGKEAAKALRKHLGYASNAVRMDVYEDFRSLGFHIFRRQLGNSNISGLFIKHPTAGKCILVNYSEDIYRQRFTAAHESAHGILDDEQEFVISLKTDKKNLVEVRANNFASDYLMPPEFLQKIPDSQTWTPEKAIEWANKLKVSTEALANALKSANFISENVEIQIKAVRVPRDLKVDPELPESLSFGSRQRREKLLKRGLSNFYVGLCFDVYEQGFISAGRVAEMLLVSKYELTEIASIYGRTIRYGD | not soluble |
